Test results published in patent publication US9096835B2, “DNA polymerase” (Medical Research Council, priority 2003, dated 2015).

Experiments:
[1] = system: abasic sites and 5-hydroxy hydantoins; assay: Hairpin ELISA lesion bypass screen; format: biochemical; details: ELISA based activity screen
Excerpt: The below protocol is a sensitive method to measure polymerase activity both for the incorporation of unnatural nucleotide substrates (added to the reaction mixture) or the extension or replication of unnatural nucleotide substrates (incorporated as part of the hairpin oligo).
The assay comprises a hairpin oligonucleotide which constitutes both primer and template in one. In contains as part of the hairpin a biotinylated dU residue, which allows capture of the hairpin oligonucleotide on streptavidin-coated surfaces.
The oligonucleotide folds up into a hairpin with a 5′ overhang, which serves as the template strand for the polymerase (typical sequence: 5′-AGCTACCATGCCTGCACGCAGTCGGCATCCGTCGCGACCACG TT5 TTCGTGGTCGCGACGGATGCCG-3′ (SEQ ID NO: 52), bases involved in hairpin formation are underlined, 3′ base is in bold, 5=dU-biotin).
Extension reactions are carried out in the presence of small amounts of a labelled nucleotide typically DIG-16-dUTP. Product is captured (for example on a streptavidin coated ELISA plate) and incorporation of labelled nucleotide into the product strand is measured (using for example an anti-DIG antibody) and taken as a measure of polymerase activity. […]

[2] = system: four mismatch primers; assay: PCR screen of clones with four mismatch primers; format: biochemical; details: 292 base pair product, 50 cycles of PCR
Description: The resultant clones from both CSR and CST were screened and ranked by PCR assay. Briefly, 2 μl of induced cells were added to 20 μl of PCR mix with the relevant 4 mismatch primers. Clones that produced a band were then subjected to further analysis and their activity on single, double and quadruple mismatch primers (single mismatch primers: 5′-CAGGAAACAGCTATGACAAAAATCTAGATAACGAGGGA-3′ (SEQ ID NO: 48) and 5′-GTAAAACGACGGCCAGTACCACCGAACTGCGGGTGACGCCAAGCC 3′ (SEQ ID NO: 49); double mismatch primers: CAGGAAACAGCTATGACTCGACAAAAATCTAGATAACGACC (SEQ ID NO: 50) and GTAAAACGACGGCCAGTTTATTAACCACCGAACTGC (SEQ ID NO: 51); four mismatch primers above.) was investigated. Polymerases that could extend all of these mismatches were found, though many polymerases could do only one of the mismatches and […].
The best first and second round clones were shuffled as described above and subjected to another round of CSR. The same two sets of mismatch primers with four mismatches at their 3′ end were used in the emulsion as two separate sources of selective pressure. This was then dealt with as above and the resultant clones were screened and ranked by PCR assay (as above). Once again, polymerases that could extend all of these mismatches were found. In particular, clones 3B5.

B1: 3D1: third round clone, four mismatch extension; SEQ ID NO: 98 (protein)
chain: MAMLPLFEPKGRVLLVDGHHLAYRTFFALKGPTTSRGEPVQVVYGFAKSLLKALKEDGYKAVFVVFDAKAPSFRHKAYEAYRAGRAPTPEDFPRQLALIKELVDLLGFTRLEVPGYEADDVLATLAKKAEKEGYEVRILTADRGLYQLVSDRVAVLHPEGHLITPEWLWEKYGLRPEQWVDFRALVGDPSDNLPGVKGIGEKTALKLLKEWGSLENLLKNLDRVKPENVREKIKAHLEDLRLSLELSRVRTDLPLEVDLAQRREPDREGLRAFLERLEFGSLFHEFGLLESPKALEEAPWPPPEGAFVGFVLSRKEPMWADLLALAAARGGRVHRAPEPYKALRDLKEARGLLAKDLSVLALREGLGLPPGDDPMLLAYLLDPSNTTPEGVARRYGGEWTEEAGERAALSERLFANLWGRLEGEERLLWLYREVERPLSAVLAHMEATGVRLDVAYLRALSLEVAEEIARLEAEVFRLAGHPFNLNSRDQLEMVLFDELRLPALGKTQKTGKRSTSAAVLEALREAHPIVEKILQYRELTKLKSTYIDPLSDLIHPRTGRLHTRFNQTATATGRLSSSDPNLQNIPVRTPLGQRIRRAFIAEEGWLLVVLDYSQIELRVLAHLSGDENLIRVFQEGRDIHTETASWMFGVPREAVDPLMRRAAKTINFGVLYGMSAHRLSQELAIPYEEAQAFIERYFQSFPKVRAWIEKTLEEGRRRGYVETLFGRRRYVPDLEARVKSVREAAERMAFNMPVQGTAADLMKLAMVKLFPRLGETGARMLLQVHDELVLEAPKERAEAVARLAKEAMEGVYPLAVPLEVEVGIGEDWLSAKG
modifications: Mutant Taq polymerase
- proficiency at lesion bypass compared with wild type Taq [1]: up to two orders of magnitude
- extension of primers containing four mismatches in PCR [2]: able to extend primers containing four mismatches
- extension of primers containing four mismatches in PCR ([2]; listed as D1): can also extend four mismatched primers in PCR

B2: 3A10: third round clone, abasic site bypass; SEQ ID NO: 86 (protein)
chain: MAMLPLFEPKGRVLLVDGHHLAYRTFFALKGLTTSRGEPVQVVYGFAKSLLKALKEDGYKAVFVVFDAKAPSFRHKAYEAYRAGRAPTPQDFPRQLALIKELVDLLGFTRLEVPGYEADDVLATLAKKAEKEGYEVRILTADRGLYQLVSDRVAVLHPEGHLITPEWLWEKYGLRPEQWVDFRALVGDPSDNLPGVKGIGEKTALKLLKEWGSLENLLKNLDRVKPENVREKIKAHLEDLRLSLELSRVRTDLPLEVDLAQGREPDREGLRAFLERLEFGSLLHEFGLLESPKALEEAPWPPPEGAFVGFVLSRKEPMWADLLALAAARGGRVHQAPEPYKALRDLKEARGLLAKDLSVLALREGLGLPPGDDPMLLAYLLDPSNTTPEGVARRYGGEWTEEAGERAALSERLFANLWGRLEGEERLLWLYREVERPLSAVLAHMETTGVRLDVAYLRALSLEVAEEIARLEAEVFRLAGRPFNLNSRDQLERVLFDELGLPAIGKTEKTGKRSTSAAVLEALREAHPIVEKILQYRELTKLKSTYIDPLPDLIHPRTGRLHTRFNQTATATGRLSSSDPNLQNIPVRTPLGQRIRRAFIAEEGWLLVVLDYSQMELRVLAHLSGDENLIRVFQEGKDIHTQTASWMFGVPPEAVDPLMRRAAKTVNFGVLYGMSAHRLSQELSIPYEEAVAFIERYFQSFPKVRAWIEKTLEEGRRRGYVETLFGRRRYVPDLNARMKSVRGAAERMAFNMPVQGTAADLMKLAMVKLFPRLREMGARMLLQVHDELLLEAPQARAEEVAALAKEAMEKAYPLAVPLEVEVGIGEDWLSAKE
modifications: Mutant Taq polymerase
- proficiency at lesion bypass compared with wild type Taq [1]: up to two orders of magnitude
- extension of primers containing four mismatches in PCR [2]: cannot
